The record followed here is PMC9917868.

The target in test [1] is VAP, endogenous in cultured rat hippocampal neurons (UniProt Q9Z270). The test can be described thus: GST pulldown with peptide competition, Western blot densitometry (VAP left on GST-NRG2_CD bait; lower signal = stronger competition by the peptide). The following applies: lysate of untransduced neurons, n = three independent experiments, parent: est. 0.14, read off a plot, scale: normalized VAP signal.

For test [2] the target is unchanged. The experiment in a line: co-immunoprecipitation (IP: NRG2 (V5)), Western blot densitometry. The following applies: AAV-transduced neurons; n = four independent experiments; parent: 1.00; read off a plot.
In test [3] the target is crNRG2 (cleavage-resistant variant of proNRG2) (human) (UniProt O14511). The test can be described thus: co-IP; co-IP of VAP with crNRG2 from transduced rat hippocampal neurons; neurons untreated (Ctrl), treated 10 min with NMDA (50 µM), or with NMDA and D-AP5 (50 µM); VAP signals normalized to Ctrl = 1.

As to “D-WT peptide (wild-type D-box peptide of NRG2) D620K; E622K”, in test [1], the response turned out to be 0.63.
“V5 epitope-tagged proNRG2 (wild type), expressed in cultured rat hippocampal neurons (from UniProt O14511) S494A; S497A; S502A; T506A; S511A”: the ratio to parent in test [2] was found to be 0.
In the case of “V5 epitope-tagged proNRG2 (wild type), expressed in cultured rat hippocampal neurons (from UniProt O14511) S494A; S497A; S502A; T506A; S511A; S613A; T625A; T626A”, in test [2], the ratio to parent worked out at 0.
Turning to “V5 epitope-tagged proNRG2 (wild type), expressed in cultured rat hippocampal neurons (from UniProt O14511) S613A; T625A; T626A”, in test [2], the ratio to parent is 0.73.
In test [3], “VAP, endogenous in cultured rat hippocampal neurons (from UniProt Q9Z270 1-249) (natural protein)” displayed a normalized VAP co-IP signal after 10 min NMDA 50 µM (Ctrl = 1) (relative to Ctrl = 1) of 0.31 and a normalized VAP co-IP signal after NMDA with D-AP5 50 µM (Ctrl = 1) (relative to Ctrl = 1) of 1.1.
